EC50 data for 14 molecules are collected here from patent US20240376180A1 (DEUTSCHES ZENTRUM FUR NEURODEGENERATIVE ERKRANKUNGEN E V …, published 2024).

Positions count from the first letter of the chain named.

The target of the test is SARS-CoV-2 Spike RBD-Fc (SARS-CoV-2). The test can be described thus: ELISA, RBD-Fc captured via anti-rabbit IgG, concentration-dependent binding.

B1: HK CV07-209 (antibody, V domains shown)
VH: QVQLVESGGGLVKPGGSLRLSCAASGFTFSDYYMSWIRQAPGKGLEWVSYISSSVSTIYYADSVKGRFTISRDNAKNSLYLQMNSLRAEDTAVYYCARDGVIPPRFDYWGQGTLVTVSS
VL: not shown
B1 yielded an EC50 of 4.1 ng/mL.

B2: HL CV07-255 (antibody, V domains shown)
VH: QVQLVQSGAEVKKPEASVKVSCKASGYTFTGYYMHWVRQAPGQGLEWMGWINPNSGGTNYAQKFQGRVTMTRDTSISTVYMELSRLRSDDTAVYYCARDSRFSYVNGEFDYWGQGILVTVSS
VL: QSALTQPASVSGSPGQSITISCTRTSSDVESYNLVSWYQQHPGKAPKLMIYEVSKRPSGISNRFSGSKSGNTASLTISGLQAEDEADYYCCSYAGHSTWVFGGGTELTVLG
Consider B2, for which a half-maximal response (EC50) required 4.8 ng/mL.

B3: HL CV07-262 (antibody, V domains shown)
VH: QVQLVQSGAEVKKPGASVKVSCKASGYTFTGYYMHWVRQAPGQGLEWMGWINPNSGGTNYAQTFQGRVTMTRDTSITTTYMELSRLRSDDTAVYYCARVGWYDFGTPGDYYYYYGMDVWGQGTTVTVSS
VL: B2 VL with R24G, E30G, V53G, I60V, Y89F, H96T, W99F, G103T, E106K, L107V
On to B3, for which the EC50 is 12.1 ng/mL.

B4: HK CV07-287 (antibody, V domains shown)
VH: QVQLVQSGPEVKKPGTSVKVSCKASGFTFTSSAMQWVRQARGQRLEWIGWIVVGSGNTNYAQKFQERVTITRDMSTSTAYMELSSLRSEDTAVYYCAAPYCSSTNCYDAFDIWGQGTMVTVSS
VL: not shown
B4 came in with an EC50 of 5.9 ng/mL.

B5: HL CV07-270 (antibody, V domains shown)
VH: QVQLVESGGGLVKPGGSLRLSCAASGFTFSDYYMTWIRQAPGKGLEWVSYISSSGSTIYYADSVKGRFTISRDNAKNSLYLQMNSLRAEDTAVYYCARARGSSGWYRIGTRWGNWFDPWGQGTLVTVSS
VL: QSALTQPASVSGSPGQSITISCTGTSSDVGGYNYVSWYQQHPGKAPKLMIYEVSNRPSGVSNRFSGSKSGNTASLTISGLQAEDEADYYCSSYTSSSNVVFGGGTMLTVLG
B5 returned an EC50 of 14.2 ng/mL.

B6: HL CV07-283 (antibody, V domains shown)
VH: QVQLVQSGAEVKKPGASAKVSCKASGYTFTGYYIHWVRQAPGQGLEWMGLINPISGGTNYAQKFQDRVTMTRDTSISTAYMELSRLRSDDTAVYYCVRGPFYYDSSGPLGGMDVWGQGTTVTVSS
VL: B5 VL with S27G, N98T, V99Y, G103T, M106K, L107V
B6: the EC50 turned out to be 4 ng/mL.

B7: HL CV07-250 (antibody, V domains shown)
VH: QVQLVQSEAEVKEPGASVEVSCKASGYNFTNFAISWVRQAPGQGLEWMGWISGYNGDTNSAQKFLGRVTMTTDTSTTTAYMELRSLRSDDTAVYYCAGSDNYGFPYNGMDVWGQGTTVTVSS
VL: QSALTQPPSASGSPGQSVTISCTGTSSDLGAYHFVTWYQHYPGKAPKVMIYGVRKRPSGVPDRFSGSKSGNTASLTVSGLQDEDEADYYCSSYAGNNDFVFGGGTKLTVLS
The molecule B7 returned an EC50 of 8.7 ng/mL.

B8: HL CV07-222 (antibody, V domains shown)
VH: QVQLVQSGAEVKKPGASVKVSCKASGYTFTDYYVHWVRQAPGQGLEWMGWINPISGGTNYAQKFQGRVTMTRDTSISTAYMELSRLRSDDTAVYYCARGPYYYDSSGSLGAFDIWGQGTMVTVSS
VL: QSALTQPASVSGSPGQSITISCTGTSSDVGSYNLVSWYQQHPGKAPKLMIYEGSKRPSGVSNRFSGSKSGNTASLTISGLQAEDEAHYYCCSYAGGSTSYVFGTGTKVTVLG
As for B8, the EC50 stood at 5.5 ng/mL.

B9: HK CVX1-126 (antibody, V domains shown)
VH: EVQLVESGGGLVQPGGSLRLSCAASGLTVSSNYMSWVRQAPGKGLEWVSVIYSGGSTYYADSVKGRFTISRHNSKNTLYLQMNSVRAEDTAVYYCARDLSEGGMDVWGQGTTVTVSS
VL: DIQMTQSPSSVSASVGDRVTITCRASQGISSWLAWYQQKPGKAPKLLIYAASTLQSGVPSRFSGSGSGTDFTLTISSLQPEDFATYYCQQANGFPPLFGGGTKVEIKR
For B9, the midpoint of the response, the EC50, lay at 5.5 ng/mL.

B10: HK CV38-113 (antibody, V domains shown)
VH: EVQLVESGGGLVQPGGSLRLSCAASGFTVSSNYMSWVRQAPGKGLEWVSVIYSGGSTYYADSVKGRFTISRHNSKNTLYLQMNSLRAEDTAVYFCARGGRLADAAGDYWGQGTLVTVSS
VL: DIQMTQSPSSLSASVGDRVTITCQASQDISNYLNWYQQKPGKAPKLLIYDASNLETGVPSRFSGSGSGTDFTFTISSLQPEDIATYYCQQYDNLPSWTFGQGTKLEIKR
Take B10: the response was half-maximal at 5.2 ng/mL (EC50).

B11: HK CV38-139 (antibody, V domains shown)
VH: EVQLVESGGGLVQPGGSLRLSCAASGFTVSSNYMSWVRQAPGKGLEWVSVFYSGGSTFYADSVKGRFTISRDNSKNTLYLQMNSLRAEDTAVYYCARGHYDLFDYWGQGTLVTVSS
VL: DIQLTQSPSFLSASVGDRVTITCRASQGISSYLAWYQQKPGKAPKLLIYAASTLQSGVPSRFSGSGSGTEFTLTISSLQPEDFATYYCQQLNSYPPGTFGPGTKVDIKR
In turn, B11 returned an EC50 of 8.9 ng/mL.

B12: HL CV07-315 (antibody, V domains shown)
VH: EVQLVESGGGLVQPGRSLRLSCAASGFTFDDYAMHWVRQAPGKGLEWVSGISWNSGSIGYADSVKGRFTISRDNAKNSLYLQMNSLRAEDTALYYCAKDFLWDLHPPRYYGMDVWGQGTTVTVSS
VL: QSVLTRPPSVSAAPGQKVTISCSGSSSNIGNNYVSWYQQLPGTAPKLLIYENNKRPSGIPDRFSGSKSGTSATLGITGLQTGDEADYYCGTWDSSLNGVFGGGTKLTVLG
With B12, the EC50 turned out to be 7.2 ng/mL.

B13: HK CVX2-106 (antibody, V domains shown)
VH: QVQLVQSGAEVKKPGSSVKVSCKASGGTFSSYAISWVRQAPGQGLEWMGGIIPIFGTANYAQKFQGRVTITADESTSTAYMELSSLRSEDTAVYYCATRKETTVTTSLVYGMDVWGQGTTVTVSS
VL: not shown
For the molecule B13, the EC50 is 5.6 ng/mL.

B14: HK CV38-221 (antibody, V domains shown)
VH: EVQLVESGGGLVQPGGSLRLSCAASGITVSSNYMIWVRQAPGKGLEWVSVIYSGGSTYYADSVKGRFTISRDNSKNTLYLQMNSLRAEDTAVYYCARGFGDYYFDYWGQGTLVTVSS
VL: EIVLTQSPGTLSLSPGERATLSCRASQSVSSSYFAWYQQKPGQAPRLLIYGASSRATGIPDRFSGSGSGTDFTLTISRLEPEDFAVYYCQQLYTFGQGTKLEIKR
As for B14, the EC50 came to 6.4 ng/mL.

As a reminder, the EC50 is the concentration at which the effect is half-maximal. Read a low EC50 as an effect from little substance.
